B1: ATE1 (parent)
chain: DYFPSEDFYRCGYCKNESGSRSNG
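Note: lentivirally expressed fusions sorted by FACS into six bins by GFP to DsRed ratio, PSI derived from sequencing read proportions per bin multiplied by bin number.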

The variants in this data set derive from B1. The experiment in a line: protein stability index of a GFP-peptide fusion (GPS, HEK-293T) (PSI 1-6); higher = more stable. The note with it: c terminus: a fixed tail appended.
In the case of DYFPSEDFYRCGSCKNESGSRSNG, the protein stability index was 3.69.

As for DYFPSEDFYRCGNCKNESGSRSNG, the protein stability index was 3.83.

Regarding DYFPSEDFYRCGMCKNESGSRSNG, the protein stability index amounted to 3.8.

DYFPSEDFYRCGRCKNESGSRSNG: the protein stability index was 2.23.

On to DYFPSEDFYRCGECKNESGSRSNG, for which the protein stability index came out at 4.41.

As for DYFPSEDFYRCGHCKNESGSRSNG, the protein stability index was 3.21.

With DYFPSEDFYRCGACKNESGSRSNG, the protein stability index was 2.76.

For DYFPSEDFYRCGLCKNESGSRSNG, the protein stability index amounted to 2.03.

As to DYFPSEDFYRCGICKNESGSRSNG, the protein stability index was determined as 2.91.

Turning to DYFPSEDFYRCGYCKNASGSRSNG, the protein stability index was found to be 1.74.

Take DYFPSEDFYRCGYCKNWSGSRSNG: the protein stability index came out at 1.78.

As to DYFPSEDFYRCGYCKNYSGSRSNG, the protein stability index amounted to 1.49.

In the case of DYFPSEDFYRCGYCKNHSGSRSNG, the protein stability index came to 2.14.

On to DYFPSEDFYRCGYCKNGSGSRSNG, for which the protein stability index came to 1.96.

For the variant DYFPSEDFYRCGYCKNNSGSRSNG, the protein stability index was determined as 2.

With DYFPSEDFYRCGYCKNLSGSRSNG, the protein stability index worked out at 2.17.

DYFPSEDFYRCGYCKNMSGSRSNG: the protein stability index worked out at 2.45.

For DYFPSEDFYRCGYCKNISGSRSNG, the protein stability index was 1.38.

Take DYFPSEDFYRCGYCKNKSGSRSNG: the protein stability index was 2.33.

As for DYFPSEDFYRCGYCKNPSGSRSNG, the protein stability index is 1.37.

As for DYFPSEDFYRCGYCKNFSGSRSNG, the protein stability index stood at 1.71.

In the case of DYFPSEDFYRCGYCKNRSGSRSNG, the protein stability index was determined as 2.78.

On to DYFPSEDFYRCGYCKNCSGSRSNG, for which the protein stability index turned out to be 1.63.

In the case of DYFPSEDFYRCGYCKNVSGSRSNG, the protein stability index is 1.4.

Turning to DYFPSEDFYRCGYCKNTSGSRSNG, the protein stability index was 2.77.

Consider DYFPSEDFYRCGYCKNQSGSRSNG, for which the protein stability index is 1.9.

As for DYFPSEDFYRCGYCKNDSGSRSNG, the protein stability index was determined as 2.44.

With DYFPSEDFYRCGYCKNSSGSRSNG, the protein stability index is 1.83.

As to DYFPSEDFYRCGYMKNESGSRSNG, the protein stability index worked out at 4.25.

With DYFPSEDFYRCGYQKNESGSRSNG, the protein stability index was 3.69.

DYFPSEDFYRCGYFKNESGSRSNG: the protein stability index amounted to 3.44.

As for DYFPSEDFYRCGYPKNESGSRSNG, the protein stability index was determined as 3.53.

Consider DYFPSEDFYRCGYSKNESGSRSNG, for which the protein stability index came to 3.94.

With DYFPSEDFYRCGYGKNESGSRSNG, the protein stability index is 3.81.

As for DYFPSEDFYRCGYRKNESGSRSNG, the protein stability index was 3.8.

Consider DYFPSEDFYRCGYWKNESGSRSNG, for which the protein stability index is 3.43.

For the variant DYFPSEDFYRCGYVKNESGSRSNG, the protein stability index is 4.1.

Turning to DYFPSEDFYRCGYYKNESGSRSNG, the protein stability index turned out to be 3.04.

As for DYFPSEDFYRCGYTKNESGSRSNG, the protein stability index came to 4.36.

On to DYFPSEDFYRCGYAKNESGSRSNG, for which the protein stability index worked out at 4.24.

As to DYFPSEDFYRCGYHKNESGSRSNG, the protein stability index is 4.16.

As for DYFPSEDFYRCGYDKNESGSRSNG, the protein stability index turned out to be 4.47.

DYFPSEDFYRCGYLKNESGSRSNG: the protein stability index amounted to 3.28.

DYFPSEDFYRCGYEKNESGSRSNG: the protein stability index amounted to 4.6.

Consider DYFPSEDFYRCGYIKNESGSRSNG, for which the protein stability index stood at 3.97.

As to DYFPSEDFYRCGYKKNESGSRSNG, the protein stability index worked out at 3.65.

DYFPSEDFYRCGYNKNESGSRSNG: the protein stability index turned out to be 3.4.

Turning to DYFPSEDFYMCGYCKNESGSRSNG, the protein stability index came out at 2.21.

Turning to DYFPSEDFYKCGYCKNESGSRSNG, the protein stability index was determined as 2.44.

With DYFPSEDFYSCGYCKNESGSRSNG, the protein stability index worked out at 2.2.

In the case of DYFPSEDFYPCGYCKNESGSRSNG, the protein stability index was 2.47.

Take DYFPSEDFYDCGYCKNESGSRSNG: the protein stability index amounted to 2.31.

As to DYFPSEDFYCCGYCKNESGSRSNG, the protein stability index was 1.43.

As to DYFPSEDFYGCGYCKNESGSRSNG, the protein stability index was found to be 2.35.

As for DYFPSEDFYLCGYCKNESGSRSNG, the protein stability index turned out to be 1.69.

Turning to DYFPSEDFYTCGYCKNESGSRSNG, the protein stability index is 2.2.

Regarding DYFPSEDFYVCGYCKNESGSRSNG, the protein stability index is 3.04.

For DYFPSEDFYHCGYCKNESGSRSNG, the protein stability index stood at 1.82.

Regarding DYFPSEDFYICGYCKNESGSRSNG, the protein stability index is 1.88.

For DYFPSEDFYYCGYCKNESGSRSNG, the protein stability index amounted to 2.99.

For the variant DYFPSEDFYACGYCKNESGSRSNG, the protein stability index came to 2.71.

On to DYFPSEDFYWCGYCKNESGSRSNG, for which the protein stability index stood at 2.33.

For the variant DYFPSEDFYECGYCKNESGSRSNG, the protein stability index turned out to be 2.6.

With DYFPSEDFYFCGYCKNESGSRSNG, the protein stability index is 1.98.

As for DYFPSEDIYRCGYCKNESGSRSNG, the protein stability index stood at 2.35.

As for DYFPSEDGYRCGYCKNESGSRSNG, the protein stability index turned out to be 2.48.

Turning to DYFPSEDPYRCGYCKNESGSRSNG, the protein stability index worked out at 3.

For the variant DYFPSEDMYRCGYCKNESGSRSNG, the protein stability index stood at 2.56.

On to DYFPSEDTYRCGYCKNESGSRSNG, for which the protein stability index stood at 2.63.

DYFPSEDQYRCGYCKNESGSRSNG: the protein stability index was found to be 2.81.

With DYFPSEDYYRCGYCKNESGSRSNG, the protein stability index amounted to 1.93.

Consider DYFPSEDRYRCGYCKNESGSRSNG, for which the protein stability index stood at 2.91.

As to DYFPSEDNYRCGYCKNESGSRSNG, the protein stability index was 2.16.

Consider DYFPSEDLYRCGYCKNESGSRSNG, for which the protein stability index is 2.19.

For DYFPSEDVYRCGYCKNESGSRSNG, the protein stability index is 3.1.

As to DYFPSEDKYRCGYCKNESGSRSNG, the protein stability index stood at 2.49.

For DYFPSEDHYRCGYCKNESGSRSNG, the protein stability index amounted to 2.19.

With DYFPSEDFIRCGYCKNESGSRSNG, the protein stability index amounted to 1.88.

For the variant DYFPSEDFKRCGYCKNESGSRSNG, the protein stability index amounted to 2.37.

DYFPSEDFMRCGYCKNESGSRSNG: the protein stability index came to 2.69.

For the variant DYFPSEDFFRCGYCKNESGSRSNG, the protein stability index worked out at 1.92.

Take DYFPSEDFDRCGYCKNESGSRSNG: the protein stability index stood at 2.42.

For the variant DYFPSEDFCRCGYCKNESGSRSNG, the protein stability index was found to be 3.12.

In the case of DYFPSEDFLRCGYCKNESGSRSNG, the protein stability index came out at 2.01.

As for DYFPSEDFERCGYCKNESGSRSNG, the protein stability index is 2.43.

For DYFPSEDFSRCGYCKNESGSRSNG, the protein stability index turned out to be 2.36.

As to DYFPSEDFTRCGYCKNESGSRSNG, the protein stability index turned out to be 2.98.

As to DYFPSEDFNRCGYCKNESGSRSNG, the protein stability index is 2.18.

Take DYFPSEDFHRCGYCKNESGSRSNG: the protein stability index was 1.82.

Turning to DYFPSEDFWRCGYCKNESGSRSNG, the protein stability index came out at 2.46.

Consider DYFPSEDFQRCGYCKNESGSRSNG, for which the protein stability index was 2.14.

As for DYFPSEDFARCGYCKNESGSRSNG, the protein stability index turned out to be 2.99.

In the case of DYFPSEDFPRCGYCKNESGSRSNG, the protein stability index amounted to 2.57.

Turning to DYFPSEDFVRCGYCKNESGSRSNG, the protein stability index is 2.21.

These data come from the supplement of paper PMC10567573.
